Data taken from article PMC6050537 (2018).
Non-standard residues stand in square brackets, D forms with d. 1Nal = N[C@@H](Cc1cccc2ccccc12)C(=O)O

T1: Full length IDOL (1–445) (UniProt Q8WY64 1-445, NT-647-NHS dye (only the labelled copy in the MST assays))
T1 chain: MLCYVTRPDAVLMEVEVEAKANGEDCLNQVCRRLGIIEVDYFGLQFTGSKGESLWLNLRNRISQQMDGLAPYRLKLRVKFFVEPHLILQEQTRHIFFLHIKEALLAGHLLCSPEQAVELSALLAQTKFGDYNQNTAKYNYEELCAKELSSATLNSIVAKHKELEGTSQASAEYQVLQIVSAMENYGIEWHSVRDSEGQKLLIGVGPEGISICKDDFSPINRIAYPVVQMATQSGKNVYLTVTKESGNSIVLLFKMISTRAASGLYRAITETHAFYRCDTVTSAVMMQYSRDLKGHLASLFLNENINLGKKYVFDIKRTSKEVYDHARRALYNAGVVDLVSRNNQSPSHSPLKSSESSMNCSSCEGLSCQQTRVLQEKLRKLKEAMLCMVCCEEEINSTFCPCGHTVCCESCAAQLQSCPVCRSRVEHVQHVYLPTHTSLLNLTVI


Target: T1, Full length IDOL (1–445)
Test: MST

| Kd [µM] | Binder |
| --- | --- |
| 6.6 | CFXLYT (HELM PEPTIDE1{C.F.[Cha].L.Y.T}$PEPTIDE1,PEPTIDE1,1:R1-6:R2$$$V2.0; SMILES CC(C)C[C@@H]1NC(=O)[C@H](CC2CCCCC2)NC(=O)[C@H](Cc2ccccc2)NC(=O)[C@H](CS)NC(=O)[C@H]([C@@H](C)O)NC(=O)[C@H](Cc2ccc(O)cc2)NC1=O) [RINGPep2 (cyclo-CF-Cha-LYT)] |
| 6.3 | cyclo(CF[1Nal]LYT) [RINGPep1 analogue containing 3-(1-naphthyl)-L-alanine] |
